Results taken from patent US20150160214A1, “Quantitation of Cellular Adhesion Dynamics Across Immobilized Receptors Under Rheological Shear Flow” (Mayo Foundation for Medical Education and Research, priority 2013, published 2015).

Key:
platelet GPIbα = target: T1, platelet GPIbα (Homo sapiens, UniProt P07359); test: Platelet pause times on surface-captured A1 domain variants, parallel plate flow chamber (Table 4, Example 3); format: cell-based; parameters: key to Pause Time 1500 s^−1 (s): NB = “No Binding.”; conditions: for Platelet binding to surface-captured A1 domain variant: any shear rate; for Pause Time 1500 s^−1 (s): shear rate 1500 s^−1, mean ± std. dev., number of measurements in parentheses, NB = No Binding
T1 construct: endogenous in cells; host or cells: platelets in citrated whole blood of normal healthy volunteer donors
Description: The determination and analysis of platelet pause times and instantaneous translocation velocities over surface captured A1 and RCAM A1 was performed as previously described (Tischer:2013). Here, the inventor used the Cellix Mims Evo syringe pump controlled by VenaFluxAssay (www.cellixltd.com). Vena8™ CGS biochips were custom designed with 800 μm width by 80 μm height microchannels bonded to glass slides with a Cu^2+ chelated PEG surface serviced by Microsurfaces Inc. (www.proteinslides.com/histag.html) to which the A1 and RCAM A1 in TBS were captured by the 6×His-Tag at a total concentration of 5 μM. Citrated whole blood was obtained from the informed consent of healthy volunteer donors with approval from the Mayo Clinic Institutional Review Board and 100 μL was perfused over the surface captured A1 domains at 700 s^−1. The shear was increased or decreased in a stepwise manner to measure the dynamics of platelet adhesion at high and low shear. After allowing the flow chamber to equilibrate for 50 s at each shear rate, 1 min movies were recorded at 24 frames per second in phase contrast at 200× magnification with 2×2 pixel binning on a Zeiss AxioCam Mrm camera (6.45 μm/px) attached to a Zeiss Axio Observer.D1 inverted microscope. Tracking analysis was performed using MediaCybernetics ImagePro® Premier (www.mediacy.com/index.aspx?page=IP\_Premier) The distance travelled in the direction of flow was calculated from the coordinate data for each platelet as a function of time using √{square root over ((xt−x0)^2)}, where x0 is the coordinates of a platelet on the first frame of the movie and xt is the coordinate on subsequent frames of the movie. These trajectories were differentiated into instantaneous velocities using a Savitzky-Golay algorithm (Savitzky:1964) with a five data point window size and a second order polynomial implemented into a Mathematica (www.wolfram.com/mathematica) notebook written in our lab. Trajectories were retained for statistical analysis if the platelet was present for ≧1 s and travelled a total distance greater than 1 Distance travelled in pixels (px) was converted to (μm) using 6.45 μm/px*2/200=0.0645 μm/px. Pause times were determined by the amount of time (sec) a platelets velocity was 0±4 px/s≅0±0.23 μm/s, within the noise. Data are reported as mean velocities and pause times attained by individual platelets averaged over all platelets analyzed. Integral analysis of the cumulative pause time histogram gives the survival fraction, equation (24).
The rheological interaction of platelets with A1 domain variants harboring type 2M and type 2B mutations was studied using recently developed flow-chamber methods (19). The A1 domains ([…]) were immobilized on Vena8™ biochips (Cellix, Dublin, Ireland) coated with a Cu^2+-chelated poly-ethylene-glycol surface serviced by MicroSurfaces, Inc. (Englewood, N.J.) via the 6×His-Tag, enabling the preservation of the structural properties of the domain in solution and its concomitant effects on platelet adhesion under rheological shear flow. One-hundred microliters of citrated whole blood, obtained from the informed consent of normal healthy volunteer donors with approval from the Mayo Clinic Institutional Review Board (Rochester, Minn.), was perfused at a shear rate of 800 s^−1 followed by Tris-buffered saline. Platelets translocating on the surface-captured domains were filmed at 24 frames/s for 1 min at logarithmic intervals of the shear rate. Coordinates obtained from tracking analysis of the resulting movies were processed using the inventor recently developed statistical analytics for the quantification of cellular adhesion dynamics across immobilized receptors under rheological shear flow (supra). Biochips lacking the surface-captured A1 domain were completely inert to platelets.

[1] = Conformational and thermodynamic classification of A1 domain variants (urea and thermal denaturation, CD, FL, ANS); format: physicochemical; conditions: for Thermodynamic stability: urea and thermal denaturation
Description: Circular dichroism measurements were performed on a Model No. 420C circular-dichroism spectrometer (Aviv Biomedical, Inc., Lakewood Township, N.J.). All fluorescence (FL) measurements were performed on a Fluorolog3 spectrofluorometer (HORIBA Jobin-Yvon, Edison, N.J.) equipped with a Model No. LF1-3751 temperature controller (Wavelength Electronics Inc., Bozeman, Mont.). Near- and far-ultraviolet (UV) circular dichroism (CD), intrinsic protein FL, and ANS (8-anilino naphthalene sulfonic acid) […] spectra were determined as described in Tischer et al. (19). Urea denaturation (monitored by far-UV CD) and thermal denaturation (monitored by far-UV CD, intrinsic protein FL, and ANS FL) were performed and analyzed as previously described (19,20). Acrylamide quenching of intrinsic tryptophan fluorescence was performed and analyzed as described in Tischer et al. (19). All spectra were collected at 20° C.
The effects of mutations on the thermodynamic stability of A1 (18) was determined and a framework that incorporated partial unfolding as a means for enhancing the binding affinity of A1 for GPIba was developed (17). Initially, urea-temperature phase diagram method were used for assessing the reversible thermodynamics of unfolding at various temperatures (18,21), and more recently thermal denaturations were used to assess kinetic irreversibility (20,22). The inventor employed these methods using a variety of spectroscopic observables that assess the conformation of these A1 domain variants as a function of temperature and urea.
The observables included the following: (1) Far-UV CD to assess secondary structure content; (2) Near-UV CD to assess tertiary structure content; (3) Intrinsic protein FL to assess solvent exposure of tyrosine and tryptophan residues; (4) Acrylamide quenching of tryptophan FL to assess local solvent exposure of the single tryptophan residue; and (5) Binding of the molten globule indicator-dye, ANS, to assess exposure of hydrophobic surface area.
In total, these studies have provided metrics that are able to classify the conformation of A1 into three types, based on biophysical spectroscopy, as follows:
The type 2B mutations R1306Q and I1309V and the type 2M mutation G1324S have previously been characterized in this conformational class (18). In addition, R1308L and I1372S also belong to this class.
The type 2M mutation A1437T and the type 2B mutation R1341Q belong to this class.
The type 2M mutations F1369I, E1359K, I1425F, S1285F, and R1374H, and the type 2B mutations H1268D, P1337L, V1316M, and V1314D, belong to this class.

Substance	Platelet adhesion function (gain or loss of function) (platelet GPIbα)	Conformational class (in words) [1]	Thermodynamic stability [1]	Platelet binding to surface-captured A1 domain variant (platelet GPIbα)	Pause Time 1500 s^−1 (s) (platelet GPIbα)	A1 domain Conformation [1]
A1437T: vWF A1 domain variant with type 2M vWD mutation A1437T	mild loss-of-function	reduced secondary structure content	low stability			
E1359K: vWF A1 domain variant with type 2M vWD mutation E1359K	complete loss-of-function	significantly reduced tertiary structure content		did not bind platelets at any shear rate	NB (2)	
F1369I: vWF A1 domain variant with type 2M vWD mutation F1369I	complete loss-of-function	significantly reduced tertiary structure content		did not bind platelets at any shear rate	NB (2)	
G1324S: vWF A1 domain variant with type 2M vWD mutation G1324S		global native fold			NB (3)	N (N = “Native” (native structure with varying thermodynamic stability))
H1268D: vWF A1 domain variant with type 2B vWD mutation H1268D		significantly reduced tertiary structure content				
H1308L: vWF A1 domain variant with type 2B vWD mutation, printed H1308L in Table 4, R1308L elsewhere		global native fold				N (N = “Native” (native structure with varying thermodynamic stability))
I1309V: vWF A1 domain variant with type 2B vWD mutation I1309V		global native fold				N (N = “Native” (native structure with varying thermodynamic stability))
I1372S: vWF A1 domain variant with type 2B vWD mutation I1372S		global native fold				N (N = “Native” (native structure with varying thermodynamic stability))
I1425F: vWF A1 domain variant with type 2M vWD mutation I1425F		significantly reduced tertiary structure content		did not bind platelets at any shear rate	NB (2)	
P1337L: vWF A1 domain variant with type 2B vWD mutation P1337L	extreme type 2B gain-of-function	significantly reduced tertiary structure content				
R1306Q: vWF A1 domain variant with type 2B vWD mutation R1306Q		global native fold				N (N = “Native” (native structure with varying thermodynamic stability))
R1341Q: vWF A1 domain variant with type 2B vWD mutation R1341Q		reduced secondary structure content	low stability			
R1374H: vWF A1 domain variant with type 2M vWD mutation R1374H		significantly reduced tertiary structure content		did not bind platelets at any shear rate	NB (2)	
S1285F: vWF A1 domain variant with type 2M vWD mutation S1285F		significantly reduced tertiary structure content		did not bind platelets at any shear rate	NB (2)	
V1314D: vWF A1 domain variant with type 2B vWD mutation V1314D		significantly reduced tertiary structure content				
V1316M: vWF A1 domain variant with type 2B vWD mutation V1316M		significantly reduced tertiary structure content				
